Laboratory results: the supplement of paper PMC5998384

Experiments:
HeLa Kyoto [1] = assay: thermal stability score vs G1/S (z-score of summed log2 fold changes over temperatures); higher = more thermally stable than in G1/S
HeLa Kyoto [2] = assay: solubility change mitosis vs G1/S (difference of NP-40 vs SDS log2 ratios) (log2 ratio difference); higher = more soluble in mitosis
HeLa Kyoto [3] = assay: solubility in G1/S (NP-40 vs SDS abundance) (log2 ratio); higher = more soluble; settings: cell cycle stage: G1/S
HeLa Kyoto [4] = assay: melting temperature (median over replicates), in situ; higher = more thermally stable
[5] = cell cycle stage: early G1 (4.5 h after nocodazole release)
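Throughout, for melting temperature (median over replicates), in situ: HeLa Kyoto cells synchronized by double thymidine or nocodazole block, proteins quantified by TMT10plex mass spectrometry, three independent biological replicates.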
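Throughout, for solubility change mitosis vs G1/S (difference of NP-40 vs SDS log2 ratios): synchronized HeLa Kyoto cells (double thymidine block for G1/S, nocodazole release for mitosis), protein amounts in NP-40 versus SDS lysates quantified by mass spectrometry, three biological replicates.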
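Throughout, for solubility in G1/S (NP-40 vs SDS abundance): HeLa Kyoto cells arrested at G1/S by double thymidine block, proteins quantified by TMT10plex mass spectrometry in mild NP-40 versus SDS extracts, three biological replicates.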
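Throughout, for thermal stability score vs G1/S (z-score of summed log2 fold changes over temperatures): synchronized HeLa Kyoto cells, proteins quantified by TMT10plex mass spectrometry, three biological replicates, mitosis taken 0.5 h after nocodazole release, G1/S directly after double thymidine block.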

Row | Sequence | thermal stability score (HeLa Kyoto [1]; [5]) | thermal stability score (HeLa Kyoto [1]; cell cycle stage: mitosis) | solubility change mitosis (log2) (HeLa Kyoto [2]) | solubility in G1/S (log2) (HeLa Kyoto [3]) | melting temperature (HeLa Kyoto [4]; cell cycle stage: G1/S) | melting temperature (HeLa Kyoto [4]; cell cycle stage: mitosis)
1 | MAQSRDGGNPFAEPSELDNPFQDPAVIQHRPSRQYATLDVYNPFETREPPPAYEPPAPAPLPPPSAPSLQPSRKLSPTEPKNYGSYSTQASAAAATAELLKKQEELNRKAEELDRRERELQHAALGGTATRQNNWPPLPSFCPVQPCFFQDISMEIPQEFQKTVSTMYYLWMCSTLALLLNFLACLASFCVETNNGAGFGLSILWVLLFTPCSFVCWYRPMYKAFRSDSSFNFFVFFFIFFVQDVLFVLQAIGIPGWGFSGWISALVVPKGNTAVSVLMLLVALLFTGIAVLGIVMLKRIHSLYRRTGASFQKAQQEFAAGVFSNPAVRTAAANAAAGAAENAFRAP [SCAMP3] | -1.12 | 0.091 | -0.173 | 0.19 | 58.2 °C | 57.8 °C
2 | MAQTPAFDKPKVELHVHLDGSIKPETILYYGRRRGIALPANTAEGLLNVIGMDKPLTLPDFLAKFDYYMPAIAGCREAIKRIAYEFVEMKAKEGVVYVEVRYSPHLLANSKVEPIPWNQAEGDLTPDEVVALVGQGLQEGERDFGVKARSILCCMRHQPNWSPKVVELCKKYQQQTVVAIDLAGDETIPGSSLLPGHVQAYQEAVKSGIHRTVHAGEVGSAEVVKEAVDILKTERLGHGYHTLEDQALYNRLRQENMHFEICPWSSYLTGAWKPDTEHAVIRLKNDQANYSLNTDDPLIFKSTLDTDYQMTKRDMGFTEEEFKRLNINAAKSSFLPEDEKRELLDLLYKAYGMPPSASAGQNL [ADA] | -1.89 | -1.32 | -0.0197 | 0.319 | 57.9 °C | 59.2 °C
3 | MAQVAMSTLPVEDEESSESRMVVTFLMSALESMCKELAKSKAEVACIAVYETDVFVVGTERGRAFVNTRKDFQKDFVKYCVEEEEKAAEMHKMKSTTQANRMSVDAVEIETLRKTVEDYFCFCYGKALGKSTVVPVPYEKMLRDQSAVVVQGLPEGVAFKHPENYDLATLKWILENKAGISFIIKRPFLEPKKHVGGRVMVTDADRSILSPGGSCGPIKVKTEPTEDSGISLEMAAVTVKEESEDPDYYQYNIQAGPSETDDVDEKQPLSKPLQGSHHSSEGNEGTEMEVPAEDSTQHVPSETSEDPEVEVTIEDDDYSPPSKRPKANELPQPPVPEPANAGKRKVREFNFEKWNARITDLRKQVEELFERKYAQAIKAKGPVTIPYPLFQSHVEDLYVEGLPEGIPFRRPSTYGIPRLERILLAKERIRFVIKKHELLNSTREDLQLDKPASGVKEEWYARITKLRKMVDQLFCKKFAEALGSTEAKAVPYQKFEAHPNDLYVEGLPENIPFRSPSWYGIPRLEKIIQVGNRIKFVIKRPELLTHSTTEVTQPRTNTPVKEDWNVRITKLRKQVEEIFNLKFAQALGLTEAVKVPYPVFESNPEFLYVEGLPEGIPFRSPTWFGIPRLERIVRGSNKIKFVVKKPELVISYLPPGMASKINTKALQSPKRPRSPGSNSKVPEIEVTVEGPNNNNPQTSAVRTPTQTNGSNVPFKPRGREFSFEAWNAKITDLKQKVENLFNEKCGEALGLKQAVKVPFALFESFPEDFYVEGLPEGVPFRRPSTFGIPRLEKILRNKAKIKFIIKKPEMFETAIKESTSSKSPPRKINSSPNVNTTASGVEDLNIIQVTIPDDDNERLSKVEKARQLREQVNDLFSRKFGEAIGMGFPVKVPYRKITINPGCVVVDGMPPGVSFKAPSYLEISSMRRILDSAEFIKFTVIRPFPGLVINNQLVDQSESEGPVIQESAEPSQLEVPATEEIKETDGSSQIKQEPDPTW [GTF2I] | 6.54 | 16.3 | 0.0472 | 0.0586 | 45.4 °C | 48.5 °C
4 | MARAAALLPSRSPPTPLLWPLLLLLLLETGAQDVRVQVLPEVRGQLGGTVELPCHLLPPVPGLYISLVTWQRPDAPANHQNVAAFHPKMGPSFPSPKPGSERLSFVSAKQSTGQDTEAELQDATLALHGLTVEDEGNYTCEFATFPKGSVRGMTWLRVIAKPKNQAEAQKVTFSQDPTTVALCISKEGRPPARISWLSSLDWEAKETQVSGTLAGTVTVTSRFTLVPSGRADGVTVTCKVEHESFEEPALIPVTLSVRYPPEVSISGYDDNWYLGRTDATLSCDVRSNPEPTGYDWSTTSGTFPTSAVAQGSQLVIHAVDSLFNTTFVCTVTNAVGMGRAEQVIFVRETPNTAGAGATGGIIGGIIAAIIATAVAATGILICRQQRKEQTLQGAEEDEDLEGPPSYKPPTPKAKLEAQEMPSQLFTLGASEHSPLKTPYFDAGASCTEQEMPRYHELPTLEERSGPLHPGATSLGSPIPVPPGPPAVEDVSLDLEDEEGEEEEEYLDKINPIYDALSYSSPSDSYQGKGFVMSRAMYV [PVRL2] | -2.1 | -3.87 | 0.0111 | 0.108 | 56.9 °C | 55.4 °C
5 | MARAMAAAWPLLLVALLVLSWPPPGTGDVVVQAPTQVPGFLGDSVTLPCYLQVPNMEVTHVSQLTWARHGESGSMAVFHQTQGPSYSESKRLEFVAARLGAELRNASLRMFGLRVEDEGNYTCLFVTFPQGSRSVDIWLRVLAKPQNTAEVQKVQLTGEPVPMARCVSTGGRPPAQITWHSDLGGMPNTSQVPGFLSGTVTVTSLWILVPSSQVDGKNVTCKVEHESFEKPQLLTVNLTVYYPPEVSISGYDNNWYLGQNEATLTCDARSNPEPTGYNWSTTMGPLPPFAVAQGAQLLIRPVDKPINTTLICNVTNALGARQAELTVQVKEGPPSEHSGISRNAIIFLVLGILVFLILLGIGIYFYWSKCSREVLWHCHLCPSSTEHASASANGHVSYSAVSRENSSSQDPQTEGTR [PVR] | -1.4 | -2.91 | 0.164 | 0.109 | 55 °C | 55 °C
6 | MARENGESSSSWKKQAEDIKKIFEFKETLGTGAFSEVVLAEEKATGKLFAVKCIPKKALKGKESSIENEIAVLRKIKHENIVALEDIYESPNHLYLVMQLVSGGELFDRIVEKGFYTEKDASTLIRQVLDAVYYLHRMGIVHRDLKPENLLYYSQDEESKIMISDFGLSKMEGKGDVMSTACGTPGYVAPEVLAQKPYSKAVDCWSIGVIAYILLCGYPPFYDENDSKLFEQILKAEYEFDSPYWDDISDSAKDFIRNLMEKDPNKRYTCEQAARHPWIAGDTALNKNIHESVSAQIRKNFAKSKWRQAFNATAVVRHMRKLHLGSSLDSSNASVSSSLSLASQKDCLAPSTLCSFISSSSGVSGVGAERRPRPTTVTAVHSGSK [CAMK1D] | 0.0756 | 0.252 | -0.0784 | 0.0619 | 49.8 °C | 50.3 °C
7 | MARFALTVVRHGETRFNKEKIIQGQGVDEPLSETGFKQAAAAGIFLNNVKFTHAFSSDLMRTKQTMHGILERSKFCKDMTVKYDSRLRERKYGVVEGKALSELRAMAKAAREECPVFTPPGGETLDQVKMRGIDFFEFLCQLILKEADQKEQFSQGSPSNCLETSLAEIFPLGKNHSSKVNSDSGIPGLAASVLVVSHGAYMRSLFDYFLTDLKCSLPATLSRSELMSVTPNTGMSLFIINFEEGREVKPTVQCICMNLQDHLNGLTETR [TIGAR] | -0.092 | 0.286 | -0.0797 | 0.348 | 50.2 °C | 50.3 °C
8 | MARHVFLTGPPGVGKTTLIHKASEVLKSSGVPVDGFYTEEVRQGGRRIGFDVVTLSGTRGPLSRVGLEPPPGKRECRVGQYVVDLTSFEQLALPVLRNADCSSGPGQRVCVIDEIGKMELFSQLFIQAVRQTLSTPGTIILGTIPVPKGKPLALVEEIRNRKDVKVFNVTKENRNHLLPDIVTCVQSSRK [NTPCR] | 1.23 | 0.656 | 0.0287 | 0.569 | 52.6 °C | 53.4 °C
9 | MARKLSVILILTFALSVTNPLHELKAAAFPQTTEKISPNWESGINVDLAISTRQYHLQQLFYRYGENNSLSVEGFRKLLQNIGIDKIKRIHIHHDHDHHSDHEHHSDHERHSDHEHHSEHEHHSDHDHHSHHNHAASGKNKRKALCPDHDSDSSGKDPRNSQGKGAHRPEHASGRRNVKDSVSASEVTSTVYNTVSEGTHFLETIETPRPGKLFPKDVSSSTPPSVTSKSRVSRLAGRKTNESVSEPRKGFMYSRNTNENPQECFNASKLLTSHGMGIQVPLNATEFNYLCPAIINQIDARSCLIHTSEKKAEIPPKTYSLQIAWVGGFIAISIISFLSLLGVILVPLMNRVFFKFLLSFLVALAVGTLSGDAFLHLLPHSHASHHHSHSHEEPAMEMKRGPLFSHLSSQNIEESAYFDSTWKGLTALGGLYFMFLVEHVLTLIKQFKDKKKKNQKKPENDDDVEIKKQLSKYESQLSTNEEKVDTDDRTEGYLRADSQEPSHFDSQQPAVLEEEEVMIAHAHPQEVYNEYVPRGCKNKCHSHFHDTLGQSDDLIHHHHDYHHILHHHHHQNHHPHSHSQRYSREELKDAGVATLAWMVIMGDGLHNFSDGLAIGAAFTEGLSSGLSTSVAVFCHELPHELGDFAVLLKAGMTVKQAVLYNALSAMLAYLGMATGIFIGHYAENVSMWIFALTAGLFMYVALVDMVPEMLHNDASDHGCSRWGYFFLQNAGMLLGFGIMLLISIFEHKIVFRINF [SLC39A6] | 0.915 | -0.208 | -0.0474 | -0.161 | – | 57.4 °C
10 | MARMNRPAPVEVTYKNMRFLITHNPTNATLNKFIEELKKYGVTTIVRVCEATYDTTLVEKEGIHVLDWPFDDGAPPSNQIVDDWLSLVKIKFREEPGCCIAVHCVAGLGRAPVLVALALIEGGMKYEDAVQFIRQKRRGAFNSKQLLYLEKYRPKMRLRFKDSNGHRNNCCIQ [PTP4A1] | 0.98 | -0.349 | -0.0406 | -0.131 | 52.9 °C | 53.8 °C
11 | MASAELQGKYQKLAQEYSKLRAQNQVLKKGVVDEQANSAALKEQLKMKDQSLRKLQQEMDSLTFRNLQLAKRVELLQDELALSEPRGKKNKKSGESSSQLSQEQKSVFDEDLQKKIEENERLHIQFFEADEQHKHVEAELRSRLATLETEAAQHQAVVDGLTRKYMETIEKLQNDKAKLEVKSQTLEKEAKECRLRTEECQLQLKTLHEDLSGRLEESLSIINEKVPFNDTKYSQYNALNVPLHNRRHQLKMRDIAGQALAFVQDLVTALLNFHTYTEQRIQIFPVDSAIDTISPLNQKFSQYLHENASYVRPLEEGMLHLFESITEDTVTVLETTVKLKTFSEHLTSYICFLRKILPYQLKSLEEECESSLCTSALRARNLELSQDMKKMTAVFEKLQTYIALLALPSTEPDGLLRTNYSSVLTNVGAALHGFHDVMKDISKHYSQKAAIEHELPTATQKLITTNDCILSSVVALTNGAGKIASFFSNNLDYFIASLSYGPKAASGFISPLSAECMLQYKKKAAAYMKSLRKPLLESVPYEEALANRRILLSSTESREGLAQQVQQSLEKISKLEQEKEHWMLEAQLAKIKLEKENQRIADKLKNTGSAQLVGLAQENAAVSNTAGQDEATAKAVLEPIQSTSLIGTLTRTSDSEVPDVESREDLIKNHYMARIVELTSQLQLADSKSVHFYAECRALSKRLALAEKSKEALTEEMKLASQNISRLQDELTTTKRSYEDQLSMMSDHLCSMNETLSKQREEIDTLKMSSKGNSKKNKSR [PPP1R21] | 1.34 | 1.02 | -0.00813 | 0.371 | 51.3 °C | 51 °C
12 | MASCAEPSEPSAPLPAGVPPLEDFEVLDGVEDAEGEEEEEEEEEEEDDLSELPPLEDMGQPPAEEAEQPGALAREFLAAMEPEPAPAPAPEEWLDILGNGLLRKKTLVPGPPGSSRPVKGQVVTVHLQTSLENGTRVQEEPELVFTLGDCDVIQALDLSVPLMDVGETAMVTADSKYCYGPQGRSPYIPPHAALCLEVTLKTAVDGPDLEMLTGQERVALANRKRECGNAHYQRADFVLAANSYDLAIKAITSSAKVDMTFEEEAQLLQLKVKCLNNLAASQLKLDHYRAALRSCSLVLEHQPDNIKALFRKGKVLAQQGEYSEAIPILRAALKLEPSNKTIHAELSKLVKKHAAQRSTETALYRKMLGNPSRLPAKCPGKGAWSIPWKWLFGATAVALGGVALSVVIAARN [FKBP8] | 1.22 | 3 | -0.0477 | 0.229 | 48.7 °C | 49.5 °C
